Experimental findings from patent US20090136510A1 (Eli Lilly, published 2009) are described below.

Test [1] concerns the target T1, recombinant human RON protein (rh-RON protein, R&D Systems; recombinant human MSPR) (human, UniProt Q04912 25-571).
T1 construct: Bought soluble recombinant protein; also called rhu-RON protein; rh-MSPR; not shown: His tag on the recombinant protein
T1 sequence (looked up): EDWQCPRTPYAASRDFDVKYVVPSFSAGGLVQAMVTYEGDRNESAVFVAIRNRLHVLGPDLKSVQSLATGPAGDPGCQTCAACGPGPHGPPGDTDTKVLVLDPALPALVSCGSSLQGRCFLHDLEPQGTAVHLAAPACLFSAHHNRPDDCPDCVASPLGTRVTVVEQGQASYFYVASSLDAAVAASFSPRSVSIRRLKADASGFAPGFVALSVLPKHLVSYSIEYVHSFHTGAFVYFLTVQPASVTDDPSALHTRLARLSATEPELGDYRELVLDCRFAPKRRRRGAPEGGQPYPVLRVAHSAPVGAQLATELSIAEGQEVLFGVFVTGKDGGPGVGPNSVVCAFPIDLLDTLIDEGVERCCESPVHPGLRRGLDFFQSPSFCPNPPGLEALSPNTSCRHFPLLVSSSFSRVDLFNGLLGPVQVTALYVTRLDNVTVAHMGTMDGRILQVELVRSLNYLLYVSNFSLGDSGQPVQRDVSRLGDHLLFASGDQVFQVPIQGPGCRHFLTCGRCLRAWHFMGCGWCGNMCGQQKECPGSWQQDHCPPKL
Description: ELISA, blocking of MSP/RON interaction; ligand MSP. For orientation: In an ELISA, binding on a coated surface is turned into a signal by an enzyme label.

Test [2] has as its target T2, Recombinant RON-Fc (UniProt Q04912 25-957, limits assumed).
T2 construct: Immobilised on the BIAcore chip; also called RON proteins; not shown: Fc part
T2 sequence (looked up): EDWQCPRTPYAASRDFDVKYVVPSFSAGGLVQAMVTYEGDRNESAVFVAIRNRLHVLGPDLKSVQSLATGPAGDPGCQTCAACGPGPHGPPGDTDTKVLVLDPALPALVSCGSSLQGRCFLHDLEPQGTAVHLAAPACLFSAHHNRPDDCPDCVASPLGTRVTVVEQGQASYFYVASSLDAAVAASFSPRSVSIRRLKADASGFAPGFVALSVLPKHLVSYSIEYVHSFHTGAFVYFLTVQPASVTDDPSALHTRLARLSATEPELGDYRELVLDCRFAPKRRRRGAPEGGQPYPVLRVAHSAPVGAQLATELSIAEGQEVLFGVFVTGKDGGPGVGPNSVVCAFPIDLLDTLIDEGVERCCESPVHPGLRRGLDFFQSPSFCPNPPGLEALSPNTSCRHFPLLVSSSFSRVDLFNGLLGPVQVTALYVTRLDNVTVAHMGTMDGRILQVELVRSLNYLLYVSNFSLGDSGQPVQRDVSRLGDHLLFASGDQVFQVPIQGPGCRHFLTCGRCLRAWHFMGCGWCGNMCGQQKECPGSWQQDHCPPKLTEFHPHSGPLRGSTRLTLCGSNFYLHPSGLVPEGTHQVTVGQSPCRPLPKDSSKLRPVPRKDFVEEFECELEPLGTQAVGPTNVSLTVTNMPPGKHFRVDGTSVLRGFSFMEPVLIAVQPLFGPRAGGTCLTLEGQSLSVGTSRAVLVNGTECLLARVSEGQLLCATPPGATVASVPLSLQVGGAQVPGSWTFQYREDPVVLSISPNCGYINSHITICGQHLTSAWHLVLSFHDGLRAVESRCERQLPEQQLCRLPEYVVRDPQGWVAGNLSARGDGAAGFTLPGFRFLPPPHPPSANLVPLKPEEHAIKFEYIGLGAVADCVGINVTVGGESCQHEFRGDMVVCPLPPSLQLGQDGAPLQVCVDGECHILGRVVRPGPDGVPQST
Briefly: SPR (BIACORE 3000), RON-Fc immobilised, antibody injected; BIACORE 3000, RON-Fc immobilized. The procedure: BIAcore Analysis. The binding kinetics of the antibodies to the RON proteins was determined by using a BIACORE 3000 (BIAcore, Piscataway, N.J.). Recombinant RON-Fc was immobilized onto a sensor chip, and antibody was injected at various concentrations. Sensorgrams were obtained and evaluated using BIA Evaluation 2.0 software to determine rate constants. The affinity constant, KD, was calculated from the ratio of the rate constants Koff/Kₒₙ. The “Kₒₙ, M⁻¹.S⁻¹” and “Koff, S⁻¹” rates of the interaction were used to determine the affinity (Kd, M) of the antibody/receptor interaction. […] For RON8 they were: 3.2e-11, 6.1e6 and 2.0e-4

Test [3] addresses T2, Recombinant RON-Fc. Description: comparison of KD values; reference RON1.
The target of test [4] is T1, recombinant human RON protein (rh-RON …). Briefly: ELISA, receptor immobilised on the plate (given as ED50). The procedure:
The ability of the anti-RON antibodies, RON6 and RON8, to bind to recombinant human RON receptor and to block the MSP/RON interaction were measured using ELISA. […] Using the same ELISA format, the two antibodies were tested for their ability to block MSP/RON interactions. The measured IC₅₀ values were 46 pM for RON6 and 62 pM for RON8.

Test [5] concerns the target T2, Recombinant RON-Fc. Briefly: method and RON form not stated at this place; clone-selection value of paragraph 178; method and RON form not stated.
Test [6] addresses T1, recombinant human RON protein (rh-RON …). Description: blocking ELISA: serially diluted RON8 pre-incubated with His-tagged recombinant human RON (rh-MSPR), added to plate-immobilised recombinant human MSP (the blocked ligand); bound RON detected with anti-His-tag HRP, absorbance 450 nm. The procedure:
ELISA to Detect RON8 Blocking of MSP Binding to RON: ELISA plates were coated with 100 ng/well carrier-free MSP (R&D Systems) overnight at 4° C. on a rocker. The plate was washed once with 0.2% PBS/T and blocked for 2 hours at 37° C. with 150 μL/well 3% milk. A 15 μg/mL dilution of RON8 was prepared and serially diluted across another ELISA plate. To the RON8, was added 100 ng/well recombinant human MSPR (R&D Systems). The RON8/rh-MSPR complex was allowed to form for 2 hours at room temperature on a rocker. Next, the MSP-coated ELISA plate was washed once with 0.2% PBS/T and 100 μL of the RON8/rh-MSPR complex were added per well. After a 1.5-hour incubation at room temperature, the plate was washed five times with 0.2% PBS/T and incubated for 1 hour at room temperature with a 1:2,000 dilution of anti-His-tag HRP antibody (Sigma), which recognizes a His tag on the recombinant human MSPR protein. The plate was washed five times with 0.2% PBS/T and 100-AL substrate was added per well until a yellow color developed. The reaction was stopped with 50 μL of 1N H₂SO4 and the absorbance at 450 nm determined with a standard plate reader. The results of which are illustrated by FIG. 6A depict the solid-phase blocking characteristic of RON8. The ELISA data determined the IC50 value of RON8 needed to block the interaction of recombinant human RON protein to immobilized recombinant human MSP.

B1: RON6 antibody (human anti-RON monoclonal antibody) (antibody, human IgG1, kappa, V domains shown)
VH: QVQLVQSGPEVKKSGSSVKVSCKASGGTFSSDAITWVRQAPGQGLEWMGGIIPILGMANYAQKFQGRVTITADKSTNTAYMELSSLRSEDTAVYFCARVADYYGLGTYYWYFDLWGRGTLVTVSS
VL: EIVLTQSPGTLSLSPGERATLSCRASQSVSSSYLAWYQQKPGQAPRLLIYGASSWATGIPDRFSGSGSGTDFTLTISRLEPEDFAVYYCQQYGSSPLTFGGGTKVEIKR
notes: Fully human IgG from HuMAb mice
Turning to B1, in test [1], the IC50 came out at 0.046 nM. In addition, in the test with Recombinant RON-Fc [2], the Kd worked out at 0.041 nM, the koff was 8.6e-05 s⁻¹ and the kon is 2.2e+06 M⁻¹ s⁻¹. Besides, in the test with Recombinant RON-Fc [3], the “fold greater affinity than RON1” value turned out to be 100 fold. The EC50 in test [4] came out at 0.0042 nM. For the same molecule, the Kd in the test with Recombinant RON-Fc [5] came out at 0.045 nM.

B2: RON8 antibody (human anti-RON monoclonal antibody) (antibody, human IgG1, kappa, V domains shown)
VH: EVQLVESGGGLVQPGGSLRLSCAASGFTFSSYLMTWVRQAPGKGLEWVANIKQDGSEKYYVDSVKGRFTISRDNAKNSLNLQMNSLRAEDTAVYYCTRDGYSSGRHYGMDVWGQGTTVIVSS
VL: EIVLTQSPATLSLSPGERATLSCRASQSVSRYLAWYQQKPGQAPRLLIYDASNRATGIPARFSGSGSGTDFTLTISSLEPEDFAVYYCQQRSNWPRTFGQGTKVEIKR
notes: as for B1
For the molecule B2, the IC50 in test [1] amounted to 0.062 nM. Moreover, in test [6], the IC50 was 0.473 nM and the “IC50 (read off the curve)” value was around 0.5 nM. In addition, in the test with Recombinant RON-Fc [2], the Kd worked out at 0.032 nM, the koff amounted to 0.0002 s⁻¹ and the kon came to 6.1e+06 M⁻¹ s⁻¹. Besides, the “fold greater affinity than RON1” value with Recombinant RON-Fc [3] came to 100 fold. Besides, the EC50 in test [4] was 0.0021 nM. In addition, the Kd with Recombinant RON-Fc [5] amounted to 0.023 nM.

A word on the IC50: it is the concentration that gives 50% inhibition. For orientation: Kd means the concentration at which binding is half-saturated. A word on the koff: it is the first-order rate constant of dissociation. As a reminder, the kon is a measure of how fast the partners come together. By EC50 is commonly meant the concentration needed to bring the measured effect to its halfway point.
